Measurements as given in US20140193417A1 (LUDWIG INSTITUTE FOR CANCER RESEARCH, published 2014).

Experiments:
murine NaPi2b protein = target: T1, murine NaPi2b protein (mouse, UniProt Q9DBP0 1-697); assay: Western blot of mouse tissues (data not shown)
T1 construct: also called the murine protein; murine counterpart
T1 sequence (looked up): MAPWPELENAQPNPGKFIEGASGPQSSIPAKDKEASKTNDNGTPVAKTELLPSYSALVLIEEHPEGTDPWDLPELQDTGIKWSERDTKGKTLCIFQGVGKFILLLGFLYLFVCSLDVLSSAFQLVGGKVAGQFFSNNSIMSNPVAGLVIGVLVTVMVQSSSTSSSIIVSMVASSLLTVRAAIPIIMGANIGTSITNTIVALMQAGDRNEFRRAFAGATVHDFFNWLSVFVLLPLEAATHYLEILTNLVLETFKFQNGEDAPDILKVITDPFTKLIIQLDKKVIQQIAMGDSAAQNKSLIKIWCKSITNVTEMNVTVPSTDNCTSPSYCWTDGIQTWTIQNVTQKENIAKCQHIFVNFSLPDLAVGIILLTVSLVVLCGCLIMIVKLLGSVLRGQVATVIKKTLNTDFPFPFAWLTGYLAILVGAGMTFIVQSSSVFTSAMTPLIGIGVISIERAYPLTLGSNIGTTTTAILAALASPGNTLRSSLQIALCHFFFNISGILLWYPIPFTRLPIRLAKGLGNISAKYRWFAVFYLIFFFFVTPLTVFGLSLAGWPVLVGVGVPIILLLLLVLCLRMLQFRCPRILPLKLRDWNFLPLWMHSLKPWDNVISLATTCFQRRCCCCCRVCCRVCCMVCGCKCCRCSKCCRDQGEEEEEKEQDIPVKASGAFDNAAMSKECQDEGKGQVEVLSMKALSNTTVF

[1] = target: T2, synthetic 29mer peptide representing amino acids 312-340 of the NaPi2b protein (human); assay: peptide ELISA and dot blot
T2 construct: no end modifications stated
T2 peptide: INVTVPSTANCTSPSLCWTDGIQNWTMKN

[2] = target: T3, His-NaPi2b-ECD (His-tagged aa 188-361 of NaPi2b, Sf9 insect cells) (human, UniProt O95436 188-361); assay: Western blot
T3 construct: range 188-361; Baculovirus expression; also called His-tagged protein in Sf9 insect cells; not shown: His tag
T3 sequence (looked up): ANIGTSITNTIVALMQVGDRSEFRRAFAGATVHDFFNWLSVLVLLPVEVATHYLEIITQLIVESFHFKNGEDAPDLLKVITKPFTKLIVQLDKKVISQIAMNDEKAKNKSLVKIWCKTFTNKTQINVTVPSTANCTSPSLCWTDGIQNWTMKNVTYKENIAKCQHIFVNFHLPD

[3] = target: T4, GST/NaPi2b-L fusion protein (aa 188-361 of NaPi2b) (human, UniProt O95436 188-361); assay: Western blot
T4 construct: range 188-361; GST is put first here (pGEX vector); also called GST-fusion protein (covering aa 188-361 of NaPi2b); bacterial fusion protein; not shown: glutathione S-transferase (GST) tag of vector pGEX4T1
T4 sequence (looked up): T3 sequence (looked up)

[4] = target: T5, NaPi2b 312-340 array peptide with Ala at 322 and 328, Ac-INVTVPSTANATSPSLAWTDGIQNWTMKN-amide (human, N-terminal acetyl (Ac-), C-terminal amide); assay: synthetic peptide membrane array, 1 ug/ml antibody
T5 peptide: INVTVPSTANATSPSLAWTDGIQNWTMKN
Method: (§1) For epitope mapping, membranes were incubated for 3 hours with 1 ug/ml primary antibody, followed by incubation with HRP-labeled goat anti-mouse polyclonal antibodies (Jackson ImmunoResearch Laboratories, West Grove, Pa.) for 2 hours. Bound antibody was visualized by chemiluminescence (Western Lightning Plus). For epitope mapping under reducing condition, membranes were incubated in 1 mM DTT for 1 hour at room temperature, and then washed extensively prior to antibody incubation.

[5] = target: T6, NaPi2b 324-338 array peptide Ac-SPSLCWTDGIQNWTM-amide (human); assay: synthetic peptide membrane array, 1 ug/ml antibody
T6 peptide: Ac-SPSLCWTDGIQNWTM-NH2
Method: as §1

[6] = target: T7, NaPi2b mutant T330V expressed in stably transfected HEK293 cells (pcDNA3.1/NaPi2b-T330V) (human, UniProt O95436 1-690); assay: Western blot of lysates of stably transfected HEK293 cells
T7 construct: whole, on cells; Made by site-directed mutagenesis of pcDNA3.1/NaPi2b; also called mutant form T330V; not shown: EE-tag
T7 sequence (looked up): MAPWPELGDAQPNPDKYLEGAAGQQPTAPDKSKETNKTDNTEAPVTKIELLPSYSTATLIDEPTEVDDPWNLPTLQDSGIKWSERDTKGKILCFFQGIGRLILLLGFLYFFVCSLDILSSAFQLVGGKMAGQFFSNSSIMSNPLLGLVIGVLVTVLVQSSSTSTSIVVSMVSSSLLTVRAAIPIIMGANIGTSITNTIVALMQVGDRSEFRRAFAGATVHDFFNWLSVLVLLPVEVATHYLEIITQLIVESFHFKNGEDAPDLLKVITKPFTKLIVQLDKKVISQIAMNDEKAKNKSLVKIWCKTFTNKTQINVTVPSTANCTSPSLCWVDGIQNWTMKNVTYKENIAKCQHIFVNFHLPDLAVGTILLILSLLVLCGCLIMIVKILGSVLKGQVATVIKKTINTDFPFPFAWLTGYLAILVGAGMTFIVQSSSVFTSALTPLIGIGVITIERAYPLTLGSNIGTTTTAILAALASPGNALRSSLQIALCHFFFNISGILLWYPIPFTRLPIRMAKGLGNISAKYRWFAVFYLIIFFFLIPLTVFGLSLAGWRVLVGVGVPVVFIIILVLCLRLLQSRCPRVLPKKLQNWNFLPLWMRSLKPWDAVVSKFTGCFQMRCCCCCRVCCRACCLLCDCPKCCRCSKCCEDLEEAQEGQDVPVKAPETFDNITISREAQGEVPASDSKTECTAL
Method: Stably transfected HEK293 cells were lysed in buffer containing 10 mM Tris-HCl, pH 7.5, 150 mM NaCl, 10 mM MgCL₂, 0,5% NP-40, and a mixture of Halt Protease Inhibitor Cocktail (Pierce, USA). Protein concentration was measured by Bradford assay (Pierce, USA), and equal amounts of proteins (10 μg) were separated in 8% SDS-PAGE and blotted to polyvinylidene difluoride (PVDF) membrane (Millipore, USA). The membrane was blocked with 3% BSA in PBS (phosphate-saline buffer) containing 0.1% Tween-20 (PBST) for 1 h. Anti-NaPi2b and anti-EE-tag antibodies were incubated with membranes at 4° C. overnight. Generation of monoclonal antibodies against the extracellular loop of transporter was previously described. After washing with PBST, HRP-conjugated goat anti-mouse IgG 1:5000 (Promega, USA) was added to the membrane for 1 h at RT. Western blots were developed using the ECL system (Amersham, Sweden) and then exposed to Agfa X-ray film.
The expression of NaPi2b (wild type and mutant forms) in HEK293 was confirmed by Western blot analysis of total cell lysates with anti-EE monoclonal antibody (FIG. 22A) or anti-NaPi2b monoclonal antibodies (FIG. 22B).

B1: Murine mAb MX35 (IgG1) (antibody, V domains shown)
VH: QVQLKQSGAELVKPGASVKMSCKASGYTFTGYNIHWVKQTPGQGLEWIGAIYPGNGDTSYKQKFRGKASLTADTSSSTVYMQLSSLTSEDSAVYYCARGETARATFAYWGQGTLVTVSA
VL: DIQMTQTTSSLPASLGDRVTISCSASQDIGNFLNWYQQKPDGTVKVLIYYTSSLYSGVPSRFSGSGSGTDYSLTISNLEPEDIATYYCQQYSKLPLTFGAGTKLELKR
notes: also called MX35 MAb; monoclonal antibody MX35
binding result (murine NaPi2b protein): no binding
binding result [1]: binds
binding result [2]: binds
binding result [3]: binds
binding result [4]: binds
binding result [5]: binds
binding result [6]: no binding
